Molecular target: T1, Rab13 Q67L (in the Rab13 biosensor) (human, UniProt P51153 1-203, Q67L)
T1 sequence: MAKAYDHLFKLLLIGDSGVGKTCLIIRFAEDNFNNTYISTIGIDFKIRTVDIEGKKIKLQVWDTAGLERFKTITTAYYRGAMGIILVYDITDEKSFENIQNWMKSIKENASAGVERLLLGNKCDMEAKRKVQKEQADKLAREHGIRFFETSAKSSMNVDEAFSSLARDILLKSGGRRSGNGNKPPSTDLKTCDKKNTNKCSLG
Assay: FRET or BRET

B1: RBD of MICAL-L2 (in the Rab13 biosensor) (domain or fragment)
chain: not shown
  FRET/mCer ratio, higher than in the Rab13 T22N biosensor: 53%

Reference: article PMC4347646 (The Journal of Cell Biology, 2015)
